pKd: −log10 of the molar value.
Legend:
[1] = biological target: ecHOP1-HORMA (2xStrepII-ecHOP1-HORMA, residues 1-274) (Ectocarpus); test: ITC
[2] = test system: His6-SUMO-ecHOP1-wHTH WT (Ectocarpus (E. siliculosus; model brown alga)); test: EMSA

| Substance | pKd [1] | pKd [2] |
| --- | --- | --- |
| MBP-ecRED1 CM1 (putative closure motif 1 of ecRED1) (domain or fragment) | 4.22 | – |
| MBP-ecHOP1 CM1-1 (closure motif 1 of ecHOP1 isoform 1, residues 567-600) (domain or fragment) | 5.14 | – |
| 167 bp Widom DNA | – | 6.60 |
| MBP-ecHOP1 CM2-1 (closure motif 2 of ecHOP1 isoform 1, residues 665-694) (domain or fragment) | 4.97 | – |

— doi:10.1101/2024.12.18.629156
